Reference: patent publication US8124742

T1: human Rh(D) antigen on Rh(D)-positive red blood cells (human, UniProt Q02161 2-417)
T1 construct: whole, on cells; also called wt; wild type Rh(D)
T1 sequence (looked up): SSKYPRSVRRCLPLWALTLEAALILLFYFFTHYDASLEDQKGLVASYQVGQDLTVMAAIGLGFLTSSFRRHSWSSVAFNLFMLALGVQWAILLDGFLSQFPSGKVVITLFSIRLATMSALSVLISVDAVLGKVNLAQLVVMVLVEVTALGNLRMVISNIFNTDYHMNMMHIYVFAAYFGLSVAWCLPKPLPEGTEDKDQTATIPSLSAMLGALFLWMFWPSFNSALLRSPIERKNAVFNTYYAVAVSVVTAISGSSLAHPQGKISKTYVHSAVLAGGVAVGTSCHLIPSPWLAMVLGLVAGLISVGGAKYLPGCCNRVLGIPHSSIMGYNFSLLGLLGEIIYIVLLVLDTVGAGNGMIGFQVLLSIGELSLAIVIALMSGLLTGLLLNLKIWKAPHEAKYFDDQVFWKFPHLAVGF


Biological target: T1, human Rh(D) antigen on Rh(D)-positive …
Experiment: agglutination, anti-M13
Description: The binding of anti-Rh(D) Fab/phage or soluble Fab molecules to normal or partial Rh(D) antigens was assessed by indirect agglutination assays as described (Siegel et al., 1994, Blood 83:2334; Siegel et al., 1997, J. Immunol. Meth. 206: 73). […] Following a one-hour incubation at 37° C., the RBCs were washed 3 times with 2 ml of cold PBS to remove unbound antibody. The resulting RBC pellets were resuspended in 100 μl of a 10 μg/ml solution of sheep anti-M13 antibody (5 Prime-3 Prime, Boulder, Colo.) for Fab/phage experiments or goat anti-human κ or λ light chain antibody (Tago, Burlingame, Calif.) for $\gamma_1\kappa$ or $\gamma_1\lambda$ soluble Fab experiments, respectively. The RBC suspensions were transferred to the round-bottomed wells of a 96-well microplate and left undisturbed for 2 hours. Negative reactions show sharp ~2 millimeter diameter RBC spots whereas the RBCs in agglutinated wells form a thin carpet coating the entire floor of the well (Siegel et al., 1997, J. Immunol. Meth. 206:73). Agglutination titers for recombinant antibodies were determined by performing serial 2-fold dilutions in 1% BSA/PBS.
Fifty-six randomly chosen colonies were selected, and monoclonal Fab/phage preparations were separately produced from each of these individual colonies, using the methods described herein in Example 1. Rh(D) specificity was determined by indirect agglutination using anti-M13 antibody, as described herein in Examples 1 and 2.

| Binder | binding result |
| --- | --- |
| SH55 (Fab, V domains shown, Fab on M13 phage) VH: EVQLLESGGGVVQPGRSLRLSCVVSGFTFNNYGMHWVRQAPGKGLEWVAVIWFDGSNKYYADSVKGRFTISRDNSKNTLYLQMNSLRAEDTAVYYCARENQIKLWSRYLYYFDYWGQGTLVTVSS VL: AELTQPPSASGTPGQRVTISCSGSSSNIGSKYVYWYQQLPGTAPKLLIYSNNQRPSGVPDRFSAFKSGTSASLAITGLQAEDEANYYCQSYDSGLSGWVFGGGTKLTVL | binds |
| SH41 (Fab, V domains shown, Fab on M13 phage) VH: EVQLLESGGGVVQPGRSLRLSCAASGFTFSTYGMHWVRQAPGKGLEWVAVIWFDGSNKEYADSVKGRFTISRDNSKNTLYLQMNSLRAEDTAVYYCAREEVVRGVILWSRKFDYWGQGTLVTVSS VL: AELTQSPSSLSASVGDRVTITCRASQNIRRSLNWYQHKPGRAPRLLIYAASTLQSGVPSRFRGSGSGTDFTLTINSLQPADFATYYCQQSSNTPWTFGHGTKVEIKR | binds |
| SH49 (Fab, V domains shown, Fab on M13 phage) VH: EVQLLESGGGVVQPGRSLRLACAASGFSFRSYGMHWVRQAPGRGLEWVAFTWFDGSNKYYVDSVKGRFTISRDNSKNTLYLEMNSLRVDDTAVYYCAREASMLRGISRYYYAMDVWGPGTTVTVSS VL: not shown | binds |
| SH51 (Fab, V domains shown, Fab on M13 phage) VH: EVQLLESGGGVVQPGRSLRLACAASGFSFRSYGMHWVRQAPGRGLEWVAFTWFDGSNKYYVDSVKGRFTISRDNSKNTLYLEMNSLRVDDTAVYYCAREASMLRGISRYYYAMDVWGPGTTVTVSS VL: AELTQSPSFLSASVGDRVTITCRASQGIRSYLAWYQQKPGKAPKLLIYAASTLQSGVPSRFSGSGSGTEFTLTISSLQPEDFATYYCQQLNNYPPFTFGPGTKVDIKR | binds |
| SH53 (Fab, V domains shown, Fab on M13 phage) VH: EVQLLESGGGGVQPGRSLRLSCAASGFTFNSYAMYWVRQPPGKGLEWVAAIWYDGSNKEYADFVKGRFTISRDNSKNTLSLQMNSLRDEDTAVYYCAREANLLRGWSRYYYGMDVWGQGTTVTVSS VL: AELQDPVVSVALGQTVRITCQGDGLRSYYASWYQQKPGQAPKLVMYGRNNRPSGIPGRFSGSSSGQTAALTITGTQAEDEADYYCQSRATSGNPVVFGGGTKLTVL | binds |
| SH44 (Fab, V domains shown, Fab on M13 phage) VH: EVQLLESGGGVAQPGRSLRLSCVASGFSLRSYGMHWVRQAPGKGLEWVADIWFDGSNKDYADSVKGRFTISRDNSKNTLYLQMNSLRAEDTAVYYCARDWRVRAFSSGWLSAFDIWGQGTMVTVSS VL: AELTQSPSSLSASVGDRVIITCRASQTIPRFLNWYQQKPGKAPVLLIHSISSLQSGVPSRFSASGSGTEFTLTISSLQPEDFATYYCQQSYSNLSFGPGTTVDIRR | binds |
| SH46 (Fab, V domains shown, Fab on M13 phage) VH: VQLLEESGGGVVQPGRSLRLSCAASGFTFSSYGMHWVRQAPGRGLEWVALIWYDGGNKEYADSVKGRFSISRDNSKNTLYLQVNSLRADDTAVYYCARDQRAAAGIFYYSRMDVWGQGTTVTVSS VL: AELTQSPSSLSASVGDRVTITCRASQYISSYLNWYQQKPGKAPNLLIYAASSLQSGVPSRFSGSGSGTDFTLTISSLQPEDFATYYCQQTYSSPSTFGPGTKVDIKR | binds |
| SH47 (Fab, V domains shown, Fab on M13 phage) VH: EVQLLESGGGVVQPGRSLRLSCAASGFSFSNYAMHWVRQAPGKGLEWVAVTSFDGSIKDYADSVKGRFTISRDNSKNTLYLQMNSLRDEDTAVYYCARERGMIVVVRRRNAFDIWGQGTMVTVSS VL: AELTQSPSSLSASVGDRVTITCRASQSISNYLNWYQQKPGKAPNLLIYAASSLQSGVPSRFSGSGSGTDFTLTISSLQPEDFATYYCQQSYSYPRTFGQGTKVEIRR | binds |
| SH48 (Fab, V domains shown, Fab on M13 phage) VH: EVQLLESGGGVVQPGRSLRLSCAASGFSFSSYGMHWVRQAPGKGLEWVAVISYDGTNKYFADSVKGRFTISRDNSKKTLYLQMTSLRPEDTAVYFCANLRGEVTRRASVPLDIWGQGTMVTVSS VL: AELTQSPSSLSASVGDRVTITCRASQYISSYLNWYQQKPGKAPNLLIYAASSLQSGVPSRFSGSGSGTDFTLTISSLQPEDFATYYCQQTYSSPSTFGPGTKVDIKR | binds |
| SH54 (Fab, V domains shown, Fab on M13 phage) VH: EVQLLESGGGVVQPGRSLRLSCAASGFTFSRNGMHWVRQAPGKGLEWVAFIWFDGSNKYYADSVKGRFTISRDNSKNTLYLQMNSLRADDTAVYYCAREEALFRGLTRWSYGMDVWGQGTTVSVSS VL: AELTQSPSSMSASVGDRVTITCRASQSIGTYLNWYQQKPGKAPKLLIYAASSLQSGVPSRFSGSGSGTDFTLTISSLQPEDFATYYCQQSYSTPWTFGQGTKVEIKR | binds |

Biological target: T1, human Rh(D) antigen on Rh(D)-positive …
Experiment: agglutination, anti-M13
Remark: another data set of the same source

| Binder | binding result |
| --- | --- |
| E1/M2 (Fab, V domains shown, Fab on M13 phage; heavy chain E1 with λ light chain M2; also called E01/M02) VH: EVQLLESGGGLVKPGGSLRLSCAASGFTFSSYSMHWVRQAPGKGLEWVSSISNSNTYIYYADAVKGRFTISRDNAKNSLYLQMNSLRAEDTAVYYCARDSRYSNFLRWVRSDGMDVWGQGTTVIVSS VL: not shown | binds |
| E1/M3 (Fab, V domains shown, used both as Fab on M13 phage and as soluble γ1λ Fab; also called E01/M03; anti-epD3) VH: EVQLLESGGGLVKPGGSLRLSCAASGFTFSSYSMHWVRQAPGKGLEWVSSISNSNTYIYYADAVKGRFTISRDNAKNSLYLQMNSLRAEDTAVYYCARDSRYSNFLRWVRSDGMDVWGQGTTVIVSS VL: AELTQPPSASGTPGQRVTISCSGSSSNIGSNYVYWYQQLPGTAPKLLIYRNNQRPSGVPDRFSGSKSGTSASLAISGLRSEAEADYYCAAWDDSLSAVVFGGGTKLTVLL | binds |
| E1/L3 (Fab, V domains shown, Fab on M13 phage; also called E1 with L3) VH: EVQLLESGGGLVKPGGSLRLSCAASGFTFSSYSMHWVRQAPGKGLEWVSSISNSNTYIYYADAVKGRFTISRDNAKNSLYLQMNSLRAEDTAVYYCARDSRYSNFLRWVRSDGMDVWGQGTTVIVSS VL: AELTQPPSASGTPGQRVTISCSGSSSNIGNNHVSWYQQLPGMAPKLLIYSNGQRPSGVPDRFSGSKSGTSASLAISGLQSEDEADYYCAAWHDSLYGPVFGGGTKLTVL | binds |
| E1/L4 (Fab, V domains shown, Fab on M13 phage; also called E1 with L4) VH: EVQLLESGGGLVKPGGSLRLSCAASGFTFSSYSMHWVRQAPGKGLEWVSSISNSNTYIYYADAVKGRFTISRDNAKNSLYLQMNSLRAEDTAVYYCARDSRYSNFLRWVRSDGMDVWGQGTTVIVSS VL: AELTQPPSASGTPGQRVSISCSGSSSNIGSNTVNWYQQLPGTAPKLLISTNNQGPSGVPDRFSGSKSGTSSSLAISGLRSEAEDDYYCAAWDDTLNGVVFGGGTKLTVL | binds |
